In this experiment the target is CAPS1 (calcium-dependent activator protein for secretion, CADPS) (rat (endogenous in rat brain)) (UniProt Q62717). Nature of the experiment: affinity purification with mass spectrometry; CAPS1 immunoprecipitate of detergent extract resolved by SDS-PAGE; Coomassie-stained bands seen in the CAPS1 but not the control immunoprecipitate excised, in-gel digests, LC-MS/MS.
Chain of CAPS1 (calcium-dependent activator protein for secretion, CADPS) (rat (endogenous in rat brain)) (Q62717 whole entry): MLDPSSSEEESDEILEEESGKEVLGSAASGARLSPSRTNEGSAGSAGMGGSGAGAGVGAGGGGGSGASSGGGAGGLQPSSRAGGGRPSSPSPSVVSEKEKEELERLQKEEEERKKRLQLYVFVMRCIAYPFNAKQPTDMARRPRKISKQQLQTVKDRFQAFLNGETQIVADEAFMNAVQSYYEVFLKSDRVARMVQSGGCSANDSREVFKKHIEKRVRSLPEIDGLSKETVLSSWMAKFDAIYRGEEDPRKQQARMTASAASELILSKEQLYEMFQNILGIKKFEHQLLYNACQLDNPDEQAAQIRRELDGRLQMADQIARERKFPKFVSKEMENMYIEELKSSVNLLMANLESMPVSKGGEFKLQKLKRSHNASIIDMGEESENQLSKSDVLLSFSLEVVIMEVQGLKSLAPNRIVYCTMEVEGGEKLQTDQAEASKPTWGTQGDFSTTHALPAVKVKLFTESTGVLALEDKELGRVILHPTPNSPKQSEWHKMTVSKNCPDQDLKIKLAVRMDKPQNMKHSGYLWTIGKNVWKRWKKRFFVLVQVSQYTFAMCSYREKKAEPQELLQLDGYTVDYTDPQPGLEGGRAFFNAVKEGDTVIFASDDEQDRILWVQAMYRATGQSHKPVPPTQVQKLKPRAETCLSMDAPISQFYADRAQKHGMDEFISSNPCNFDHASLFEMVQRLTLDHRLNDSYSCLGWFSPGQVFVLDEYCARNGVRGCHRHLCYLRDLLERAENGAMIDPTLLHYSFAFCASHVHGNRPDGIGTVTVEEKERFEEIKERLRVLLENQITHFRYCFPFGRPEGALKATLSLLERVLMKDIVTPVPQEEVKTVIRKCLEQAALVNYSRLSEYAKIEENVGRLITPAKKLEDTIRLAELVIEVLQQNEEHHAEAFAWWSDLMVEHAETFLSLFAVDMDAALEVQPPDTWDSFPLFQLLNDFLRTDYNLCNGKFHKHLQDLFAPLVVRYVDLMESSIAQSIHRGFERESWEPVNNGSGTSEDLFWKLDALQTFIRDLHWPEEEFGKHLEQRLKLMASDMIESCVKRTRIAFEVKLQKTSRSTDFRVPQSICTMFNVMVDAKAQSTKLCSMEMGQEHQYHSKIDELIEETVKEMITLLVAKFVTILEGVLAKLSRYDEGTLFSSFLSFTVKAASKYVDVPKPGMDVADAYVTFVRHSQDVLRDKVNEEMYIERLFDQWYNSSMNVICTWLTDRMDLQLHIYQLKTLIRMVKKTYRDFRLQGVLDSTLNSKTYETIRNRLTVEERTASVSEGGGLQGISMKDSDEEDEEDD

Take “Rabconnectin3α (Rbcn3α) / Dmx-like 2 (DMXL2) (natural protein)”: the stoichiometry relative to CAPS1 (bands of the immunoprecipitate) (Rbcn3 subunit : CAPS1) was 0.167.

The values are drawn from paper PMC6579465.
